Publication PMC8079274, “Calmodulin influences MAPK signaling by binding KSR1” (The Journal of Biological Chemistry, 2021)

Key:
pure calmodulin = biological target: T1, pure calmodulin (UniProt P0DP23 1-149); test: pull-down; 2 μg pure calmodulin in lysis buffer B with 1 mM Ca^2+ with GST-KSR1 constructs on glutathione-Sepharose beads, 3 h at 4 °C; blot with anti-calmodulin; conditions: both partners purified
T1 construct: Pure calmodulin from Ocean Biologics; also called purified calmodulin; CaM; source: bought: Ocean Biologics

[1] = biological target: T2, calmodulin-Sepharose (calmodulin coupled to Sepharose beads) (UniProt P0DP23 1-149); test: pull-down; 500 ng purified His-KSR1 with 30 μl calmodulin-Sepharose or GST-Sepharose, lysis buffer B (50 mM Tris-HCl pH 7.4, 150 mM NaCl, 1% Triton-X 100) with 1 mM CaCl2, 3 h at 4 °C; blot with anti-KSR1; conditions: both partners purified
T2 construct: Calmodulin coupled to Sepharose; also called CaM; source: bought: GE Healthcare (17-0529-01), calmodulin-Sepharose beads

Row | binding result (pure calmodulin) | binding result [1] | Binder
1 | binds |  | GST-KSR1-M (amino acid residues 319–433) (domain or fragment, Vector pGEX2T-TEV; also called M-fragment; pGEX2T-TEV-KSR1-M; source: E. coli, isolated with glutathione-Sepharose beads) GSPQLVRRDIGLSVTHRFSTKSWLSQVCNVCQKSMIFGVKCKHCRLKCHNKCTKEAPACRITFLPLARLRRTESVPSDINNPVDRAAEPHFGTLPKALTKKEHPPAMNLDSSSNP
2 |  | binds | His-tagged full-length KSR1 (kinase suppressor of Ras1) (natural protein, Kinase suppressor of Ras1 (KSR1), full length; Plasmid pTrace-His-KSR1 was a gift (Piero Crespo); the construct is not described further; also called His-KSR1; purified KSR1; source: 90% pure) MDRAALRAAAMGEKKEGGGGGAAADGGAGAAVSRALQQCGQLQKLIDISIGSLRGLRTKCSVSNDLTQQEIRTLEAKLVKYICKQQQSKLSVTPSDRTAELNSYPRFSDWLYIFNVRPEVVQEIPQELTLDALLEMDEAKAKEMLRRWGASTEECSRLQQALTCLRKVTGLGGEHKMDSGWSSTDARDSSLGPPMDMLSSLGRAGASTQGPRSISVSALPASDSPVPGLSEGLSDSCIPLHTSGRLTPRALHSFITPPTTPQLRRHAKLKPPRTPPPPSRKVFQLLPSFPTLTRSKSHESQLGNRIDDVTPMKFELPHGSPQLVRRDIGLSVTHRFSTKSWLSQVCNVCQKSMIFGVKCKHCRLKCHNKCTKEAPACRITFLPLARLRRTESVPSDINNPVDRAAEPHFGTLPKALTKKEHPPAMNLDSSSNPSSTTSSTPSSPAPFLTSSNPSSATTPPNPSPGQRDSRFSFPDISACSQAAPLSSTADSTRLDDQPKTDVLGVHEAEAEEPEAGKSEAEDDEEDEVDDLPSSRRPWRGPISRKASQTSVYLQEWDIPFEQVELGEPIGQGRWGRVHRGRWHGEVAIRLLEMDGHNQDHLKLFKKEVMNYRQTRHENVVLFMGACMNPPHLAIITSFCKGRTLHSFVRDPKTSLDINKTRQIAQEIIKGMGYLHAKGIVHKDLKSKNVFYDNGKVVITDFGLFGISGVVREERRENQLKLSHDWLCYLAPEIVREMIPGRDEDQLPFSKAADVYAFGTVWYELQARDWPFKHQPAEALIWQIGSGEGVRRVLASVSLGKEVGEILSACWAFDLQERPSFSLLMDMLERLPKLNRRLSHPGHFWKSADINSSKVMPRFERFGLGTLESGNPKM
